Experiments:
[1] = target: T1, recombinant human CYP1A1 expressed in HEK cells (human (H. sapiens), UniProt P04798 1-512); assay: immunoblot, HEK cell lysate with recombinant human CYP1A1
T1 construct: Bought over-expression lysate; also called OriGene LC400170
T1 sequence (looked up): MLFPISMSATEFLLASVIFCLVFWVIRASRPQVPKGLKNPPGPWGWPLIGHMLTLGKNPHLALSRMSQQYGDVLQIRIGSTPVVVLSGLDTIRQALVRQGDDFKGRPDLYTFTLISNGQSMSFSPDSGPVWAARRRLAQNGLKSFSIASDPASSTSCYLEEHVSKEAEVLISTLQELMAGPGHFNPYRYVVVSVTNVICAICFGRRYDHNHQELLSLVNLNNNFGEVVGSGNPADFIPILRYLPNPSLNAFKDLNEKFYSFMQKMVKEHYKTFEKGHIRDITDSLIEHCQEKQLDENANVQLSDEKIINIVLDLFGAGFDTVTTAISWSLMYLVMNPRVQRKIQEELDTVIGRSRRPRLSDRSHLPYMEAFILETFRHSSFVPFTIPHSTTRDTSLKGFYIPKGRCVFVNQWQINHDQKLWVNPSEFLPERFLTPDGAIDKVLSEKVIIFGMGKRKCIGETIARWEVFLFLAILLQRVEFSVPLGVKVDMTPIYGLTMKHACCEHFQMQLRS
Procedure: HEK cells were grown in media only as a cell-specific source of control cell lysate for comparison with over-expressed recombinant CYP1A1 in HEK cell lysates from the supplier.
Media was then removed from cells, replaced with 0.25% trypsin, and incubated until cells lifted from attachment. Cells were then pelleted by centrifugation to obtain a dry pellet, covered with ice-cold 300-400 μL RIPA buffer (Thermo Fisher, Waltham, MA, USA) supplemented with 2×HALT protease inhibitor cocktail (Pierce), followed by resuspension using a vortex device and placement on ice for 20 min. Suspensions were then sonicated, transferred to 1.5 mL tubes, and centrifuged 12,000×g for 20 min. Overlying supernatants were removed and transferred to clean tubes and the protein content quantified. Lysate protein concentration for each cell line, rat S9 fractions, and rainbow trout microsomes were matched between treated and controls, then boiled in reducing sample buffer for 7 min. Forty micrograms of each sample was then subjected to SDS-PAGE using 10-lane, 50 μL well capacity 4-20% pre-cast gels (Biorad, Richmond, CA, USA) and immunoblotting using standard procedures incorporating PDVF membranes. Immunoblots were blocked overnight with 10% horse serum (Gibco) in 0.01 M phosphate buffered saline (PBS) containing 0.05% tween twenty (PBS-T). […]

[2] = target: T2, rat CYP1A (rat (R. norvegicus), UniProt P00185 2-524); assay: immunoblot, rat liver S9 fractions
T2 construct: Endogenous protein in liver S9 fraction, immunoblot; also called Rat liver S9 fraction, Arochlor-1254-induced
T2 sequence (looked up): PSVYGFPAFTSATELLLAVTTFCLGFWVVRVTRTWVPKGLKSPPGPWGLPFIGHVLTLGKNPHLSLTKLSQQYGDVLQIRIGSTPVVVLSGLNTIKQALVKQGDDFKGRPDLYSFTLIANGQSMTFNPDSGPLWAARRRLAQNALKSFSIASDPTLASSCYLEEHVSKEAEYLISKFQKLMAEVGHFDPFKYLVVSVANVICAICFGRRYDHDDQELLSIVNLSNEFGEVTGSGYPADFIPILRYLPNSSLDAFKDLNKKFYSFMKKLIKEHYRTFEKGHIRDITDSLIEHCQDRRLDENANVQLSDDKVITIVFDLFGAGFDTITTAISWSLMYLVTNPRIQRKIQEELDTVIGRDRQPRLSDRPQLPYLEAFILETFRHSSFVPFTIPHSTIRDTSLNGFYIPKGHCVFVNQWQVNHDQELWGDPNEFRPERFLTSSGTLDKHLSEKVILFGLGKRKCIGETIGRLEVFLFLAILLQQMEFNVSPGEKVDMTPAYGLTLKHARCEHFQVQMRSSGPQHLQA
Procedure: Lysate protein concentration for each cell line, rat S9 fractions, and rainbow trout microsomes were matched between treated and controls, then boiled in reducing sample buffer for 7 min. Forty micrograms of each sample was then subjected to SDS-PAGE using 10-lane, 50 μL well capacity 4-20% pre-cast gels (Biorad, Richmond, CA, USA) and immunoblotting using standard procedures incorporating PDVF membranes. Immunoblots were blocked overnight with 10% horse serum (Gibco) in 0.01 M phosphate buffered saline (PBS) containing 0.05% tween twenty (PBS-T). Membranes were washed once for 10 min with PBS-T, then probed for 2 h at room temperature (RT) with mAbs as confluent supernatants diluted 1:10 in PBS-T containing a final nominal concentration of 3 ug/mL antibody. […] After 3×washes with PBS-T, membranes were incubated with NBT-BCIP (Fisher Scientific, Pittsburgh, PA, USA) as the AP substrate and activity was visualized as dark blue banding of CYP1A at the expected size of approximately 55 kDa.

[3] = target: T3, mouse CYP1A (mouse (M. musculus), UniProt P00184 1-524); assay: IHC, liver of PCB-126 treated mouse
T3 construct: Endogenous protein in Hepa1c1c7 cell lysate (immunoblot) and fixed liver (IHC); also called HEPA1C1C7; mouse hepatoma cell line CYP1A
T3 sequence (looked up): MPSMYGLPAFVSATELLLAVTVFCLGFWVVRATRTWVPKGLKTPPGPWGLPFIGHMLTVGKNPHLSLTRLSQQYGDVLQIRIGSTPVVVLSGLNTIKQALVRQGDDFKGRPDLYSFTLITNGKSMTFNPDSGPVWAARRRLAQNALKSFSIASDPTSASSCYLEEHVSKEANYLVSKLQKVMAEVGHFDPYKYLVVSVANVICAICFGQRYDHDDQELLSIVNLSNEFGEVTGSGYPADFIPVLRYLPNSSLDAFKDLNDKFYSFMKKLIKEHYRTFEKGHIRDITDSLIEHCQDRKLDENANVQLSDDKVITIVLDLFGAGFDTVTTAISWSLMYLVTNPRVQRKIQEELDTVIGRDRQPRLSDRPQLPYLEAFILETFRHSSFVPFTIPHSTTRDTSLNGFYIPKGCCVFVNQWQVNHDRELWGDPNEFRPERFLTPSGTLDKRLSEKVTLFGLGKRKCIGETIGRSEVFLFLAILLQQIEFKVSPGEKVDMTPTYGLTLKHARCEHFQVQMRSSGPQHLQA
Procedure: Subsequently, slides were immersed in pH 9 Tris-EDTA buffer while heating by microwave on 100% power for 5 min followed by cooling for 5 min, followed by a final 5 min 100% power, then a final 20 min cool-down period in the container at room temperature. After antigen retrieval, tissues on slides were encircled with a Liquid Blocker Super mini pen to isolate tissue slices. Thus, each slide was divided into sections where one section can act as a reagent control by withholding a primary antibody. Additional screening assays included isotype controls. Once slides were divided, all sections were treated to quench endogenous peroxidase activity for 30 min using 3% H₂O₂ in water. […] After blocking, avidin-then biotin-blocking steps (15 min each) were conducted to allow specificity to target molecules only for the avidin-biotin binding. Next, the antibody, as a hybridoma supernatant diluted 1:10 in PBS with 0.5% FBS, was added dropwise to the slides and incubated overnight at 4° C. or for 2 h at RT. After incubation, the slides were washed prior to addition of the secondary (biotinylated) antibody for a 30 min incubation at RT. After washing, Vectastain ABC reagent was added for 30 min prior to staining.

Measured: binding result

B1: mAb CRC4 (antibody, mouse IgG1, kappa, V domains shown)
VH: QVTLKESGPGILQPSQTLSLTCSFSGFSLSTSGMGVNWIRKPSGKGLEWLAHIFWDDDKRYNPSLKSRLTISKDTSRNQVFLMITSVDTADTATYYCASLAMDYWGQGTSVTVSS
VL: DIVMTQGASSVTVTPGESVSISCRSSKSLLHSNGRTFLYWFLQRPGQSPQLLIYRMSNLASGVPDRVSGSGSGTAFTLRISRVEAEDVGVYYCMQHLEYPFTFGGGTRLELKR
notes: Mouse IgG1 kappa from a hybridoma, used as confluent hybridoma supernatant (nominally 3 ug/mL after 1:10 dilution); also called monoclonal antibody CRC4; CRC4_1
binds: all assays above

Source: patent publication US20240247077A1 (CLEMSON UNIVERSITY RESEARCH FOUNDATION, published 2024)
